{
  "source": "patent US20170209564A1",
  "test_in_all_cases": "ELISA signal over HTRF expression signal, P. pastoris",
  "conditions_in_all_cases": "remark: other sources report otherwise",
  "key": {"[1]": {"target": "29C2"}, "[2]": {"target": "97G10"}, "[3]": {"target": "26H1"}, "[4]": {"target": "79D5"}, "[5]": {"target": "78G2"}, "[6]": {"target": "86H9"}, "[7]": {"target": "8D7"}, "[8]": {"target": "85A7"}, "[9]": {"target": "1F2"}, "[10]": {"target": "80F10"}, "[11]": {"target": "50G10"}, "[12]": {"target": "84B8"}, "[13]": {"target": "86B4"}, "[14]": {"target": "63D3"}, "[15]": {"target": "57B8"}, "[16]": {"target": "91F10"}, "[17]": {"target": "72D4"}, "[18]": {"target": "71C4"}, "[19]": {"target": "55H2"}, "[20]": {"target": "76A10"}, "[21]": {"target": "56F8"}, "[22]": {"target": "8A10"}, "[23]": {"target": "75E9"}, "[24]": {"target": "7A7"}, "[25]": {"target": "56F4"}, "[26]": {"target": "58C8"}, "[27]": {"target": "74D7"}, "[28]": {"target": "84D3"}, "[29]": {"target": "66C8"}, "[30]": {"target": "96A7"}, "[31]": {"target": "11H6"}, "[32]": {"target": "71A4"}, "[33]": {"target": "87H5"}, "[34]": {"target": "2D9"}, "[35]": {"target": "36D6"}, "[36]": {"target": "79F8"}, "[37]": {"target": "12C6"}, "[38]": {"target": "6E12"}},
  "data": [
    {"binder": "CR6261 (antibody, V domains shown) VH: EVQLVESGAEVKKPGSSVKVSCKASGGPFRSYAISWVRQAPGQGPEWMGGIIPIFGTTKYAPKFQGRVTITADDFAGTVYMELSSLRSEDTAMYYCAKHMGYQVRETMDVWGKGTTVTVSS VL: QSVLTQPPSVSAAPGQKVTISCSGSSSNIGNDYVSWYQQLPGTAPKLLIYDNNKRPSGIPDRFSGSKSGTSATLGITGLQTGDEANYYCATWDRRPTAYVVFGGGTKLTVLG", "values": [
      {"measurement": "fold increase of ratio over parental SEQ ID NO: 6", "setting": "[1]", "result": 2.32},
      {"measurement": "ratio (binding signal/HTRF signal)", "setting": "[1]", "result": 13.8},
      {"measurement": "fold increase of ratio over parental SEQ ID NO: 6", "setting": "[2]", "result": 2.12},
      {"measurement": "ratio (binding signal/HTRF signal)", "setting": "[2]", "result": 12.6},
      {"measurement": "fold increase of ratio over parental SEQ ID NO: 6", "setting": "[3]", "result": 1.62},
      {"measurement": "ratio (binding signal/HTRF signal)", "setting": "[3]", "result": 9.64},
      {"measurement": "fold increase of ratio over parental SEQ ID NO: 6", "setting": "[4]", "result": 8.46},
      {"measurement": "ratio (binding signal/HTRF signal)", "setting": "[4]", "result": 50.2},
      {"measurement": "fold increase of ratio over parental SEQ ID NO: 6", "setting": "[5]", "result": 1.58},
      {"measurement": "ratio (binding signal/HTRF signal)", "setting": "[5]", "result": 9.36},
      {"measurement": "fold increase of ratio over parental SEQ ID NO: 6", "setting": "[6]", "result": 5.77},
      {"measurement": "ratio (binding signal/HTRF signal)", "setting": "[6]", "result": 34.3},
      {"measurement": "fold increase of ratio over parental SEQ ID NO: 6", "setting": "[7]", "result": 1.69},
      {"measurement": "ratio (binding signal/HTRF signal)", "setting": "[7]", "result": 10},
      {"measurement": "fold increase of ratio over parental SEQ ID NO: 6", "setting": "[8]", "result": 4.72},
      {"measurement": "ratio (binding signal/HTRF signal)", "setting": "[8]", "result": 28},
      {"measurement": "fold increase of ratio over parental SEQ ID NO: 6", "setting": "[9]", "result": 2.04},
      {"measurement": "ratio (binding signal/HTRF signal)", "setting": "[9]", "result": 12.1},
      {"measurement": "fold increase of ratio over parental SEQ ID NO: 6", "setting": "[10]", "result": 1.78},
      {"measurement": "ratio (binding signal/HTRF signal)", "setting": "[10]", "result": 10.6},
      {"measurement": "fold increase of ratio over parental SEQ ID NO: 6", "setting": "[11]", "result": 4.7},
      {"measurement": "ratio (binding signal/HTRF signal)", "setting": "[11]", "result": 27.9},
      {"measurement": "fold increase of ratio over parental SEQ ID NO: 6", "setting": "[12]", "result": 9.71},
      {"measurement": "ratio (binding signal/HTRF signal)", "setting": "[12]", "result": 57.7},
      {"measurement": "fold increase of ratio over parental SEQ ID NO: 6", "setting": "[13]", "result": 13.1},
      {"measurement": "ratio (binding signal/HTRF signal)", "setting": "[13]", "result": 77.7},
      {"measurement": "fold increase of ratio over parental SEQ ID NO: 6", "setting": "[14]", "result": 1.87},
      {"measurement": "ratio (binding signal/HTRF signal)", "setting": "[14]", "result": 11.1},
      {"measurement": "fold increase of ratio over parental SEQ ID NO: 6", "setting": "[15]", "result": 1.7},
      {"measurement": "ratio (binding signal/HTRF signal)", "setting": "[15]", "result": 10.1},
      {"measurement": "fold increase of ratio over parental SEQ ID NO: 6", "setting": "[16]", "result": 1.78},
      {"measurement": "ratio (binding signal/HTRF signal)", "setting": "[16]", "result": 10.6},
      {"measurement": "fold increase of ratio over parental SEQ ID NO: 6", "setting": "[17]", "result": 6.25},
      {"measurement": "ratio (binding signal/HTRF signal)", "setting": "[17]", "result": 37.1},
      {"measurement": "fold increase of ratio over parental SEQ ID NO: 6", "setting": "[18]", "result": 5.13},
      {"measurement": "ratio (binding signal/HTRF signal)", "setting": "[18]", "result": 30.4},
      {"measurement": "fold increase of ratio over parental SEQ ID NO: 6", "setting": "[19]", "result": 3.28},
      {"measurement": "ratio (binding signal/HTRF signal)", "setting": "[19]", "result": 19.5},
      {"measurement": "fold increase of ratio over parental SEQ ID NO: 6", "setting": "[20]", "result": 3.37},
      {"measurement": "ratio (binding signal/HTRF signal)", "setting": "[20]", "result": 20},
      {"measurement": "fold increase of ratio over parental SEQ ID NO: 6", "setting": "[21]", "result": 3.65},
      {"measurement": "ratio (binding signal/HTRF signal)", "setting": "[21]", "result": 21.7},
      {"measurement": "fold increase of ratio over parental SEQ ID NO: 6", "setting": "[22]", "result": 6.29},
      {"measurement": "ratio (binding signal/HTRF signal)", "setting": "[22]", "result": 37.4},
      {"measurement": "fold increase of ratio over parental SEQ ID NO: 6", "setting": "[23]", "result": 2.17},
      {"measurement": "ratio (binding signal/HTRF signal)", "setting": "[23]", "result": 12.9},
      {"measurement": "fold increase of ratio over parental SEQ ID NO: 6", "setting": "[24]", "result": 12.4},
      {"measurement": "ratio (binding signal/HTRF signal)", "setting": "[24]", "result": 73.4},
      {"measurement": "fold increase of ratio over parental SEQ ID NO: 6", "setting": "[25]", "result": 3.21},
      {"measurement": "ratio (binding signal/HTRF signal)", "setting": "[25]", "result": 19.1},
      {"measurement": "fold increase of ratio over parental SEQ ID NO: 6", "setting": "[26]", "result": 2.51},
      {"measurement": "ratio (binding signal/HTRF signal)", "setting": "[26]", "result": 14.9},
      {"measurement": "fold increase of ratio over parental SEQ ID NO: 6", "setting": "[27]", "result": 3.27},
      {"measurement": "ratio (binding signal/HTRF signal)", "setting": "[27]", "result": 19.4},
      {"measurement": "fold increase of ratio over parental SEQ ID NO: 6", "setting": "[28]", "result": 4.87},
      {"measurement": "ratio (binding signal/HTRF signal)", "setting": "[28]", "result": 28.9},
      {"measurement": "fold increase of ratio over parental SEQ ID NO: 6", "setting": "[29]", "result": 2.29},
      {"measurement": "ratio (binding signal/HTRF signal)", "setting": "[29]", "result": 13.6},
      {"measurement": "fold increase of ratio over parental SEQ ID NO: 6", "setting": "[30]", "result": 1.85},
      {"measurement": "ratio (binding signal/HTRF signal)", "setting": "[30]", "result": 11},
      {"measurement": "fold increase of ratio over parental SEQ ID NO: 6", "setting": "[31]", "result": 7.87},
      {"measurement": "ratio (binding signal/HTRF signal)", "setting": "[31]", "result": 46.7},
      {"measurement": "fold increase of ratio over parental SEQ ID NO: 6", "setting": "[32]", "result": 10.2},
      {"measurement": "ratio (binding signal/HTRF signal)", "setting": "[32]", "result": 60.5},
      {"measurement": "fold increase of ratio over parental SEQ ID NO: 6", "setting": "[33]", "result": 1.64},
      {"measurement": "ratio (binding signal/HTRF signal)", "setting": "[33]", "result": 9.77},
      {"measurement": "fold increase of ratio over parental SEQ ID NO: 6", "setting": "[34]", "result": 2.76},
      {"measurement": "ratio (binding signal/HTRF signal)", "setting": "[34]", "result": 16.4},
      {"measurement": "fold increase of ratio over parental SEQ ID NO: 6", "setting": "[35]", "result": 1.83},
      {"measurement": "ratio (binding signal/HTRF signal)", "setting": "[35]", "result": 10.8},
      {"measurement": "fold increase of ratio over parental SEQ ID NO: 6", "setting": "[36]", "result": 2.64},
      {"measurement": "ratio (binding signal/HTRF signal)", "setting": "[36]", "result": 15.7},
      {"measurement": "fold increase of ratio over parental SEQ ID NO: 6", "setting": "[37]", "result": 2.43},
      {"measurement": "ratio (binding signal/HTRF signal)", "setting": "[37]", "result": 14.4},
      {"measurement": "fold increase of ratio over parental SEQ ID NO: 6", "setting": "[38]", "result": 2.85},
      {"measurement": "ratio (binding signal/HTRF signal)", "setting": "[38]", "result": 16.9}
    ]}
  ]
}
